{"source": "the Immune Epitope Database (IEDB)", "key": {"HLA-A*01:01": {"biological_target": "HLA-A*01:01", "assay": "IEDB peptide-MHC binding, purified MHC/direct/fluorescence; filed as Kd, often an IC50 or EC50 that approximates it; ≥ and ≤ were set here for values at or beyond the usual limits of such assays"}, "HLA-A*69:01 [1]": {"biological_target": "HLA-A*69:01", "assay": "IEDB peptide-MHC binding, purified MHC/direct/fluorescence; filed as Kd, often an IC50 or EC50 that approximates it; ≥ and ≤ were set here for values at or beyond the usual limits of such assays"}, "HLA-B*08:01": {"biological_target": "HLA-B*08:01", "assay": "IEDB peptide-MHC binding, purified MHC/direct/fluorescence; filed as Kd, often an IC50 or EC50 that approximates it; ≥ and ≤ were set here for values at or beyond the usual limits of such assays"}, "HLA-A*03:01": {"biological_target": "HLA-A*03:01", "assay": "IEDB peptide-MHC binding, purified MHC/direct/fluorescence; filed as Kd, often an IC50 or EC50 that approximates it; ≥ and ≤ were set here for values at or beyond the usual limits of such assays"}, "HLA-B*58:01": {"biological_target": "HLA-B*58:01", "assay": "IEDB peptide-MHC binding, purified MHC/direct/fluorescence; filed as Kd, often an IC50 or EC50 that approximates it; ≥ and ≤ were set here for values at or beyond the usual limits of such assays"}, "HLA-A*31:01": {"biological_target": "HLA-A*31:01", "assay": "IEDB peptide-MHC binding, purified MHC/direct/fluorescence; filed as Kd, often an IC50 or EC50 that approximates it; ≥ and ≤ were set here for values at or beyond the usual limits of such assays"}, "HLA-A*02:01 [2]": {"biological_target": "HLA-A*02:01", "assay": "IEDB peptide-MHC binding, purified MHC/direct/fluorescence; filed as Kd, often an IC50 or EC50 that approximates it; ≥ and ≤ were set here for values at or beyond the usual limits of such assays"}, "HLA-B*44:02": {"biological_target": "HLA-B*44:02", "assay": "IEDB peptide-MHC binding, purified MHC/direct/fluorescence; filed as Kd, often an IC50 or EC50 that approximates it; ≥ and ≤ were set here for values at or beyond the usual limits of such assays"}, "HLA-A*11:01": {"biological_target": "HLA-A*11:01", "assay": "IEDB peptide-MHC binding, purified MHC/direct/fluorescence; filed as Kd, often an IC50 or EC50 that approximates it; ≥ and ≤ were set here for values at or beyond the usual limits of such assays"}, "HLA-B*27:05": {"biological_target": "HLA-B*27:05", "assay": "IEDB peptide-MHC binding, purified MHC/direct/fluorescence; filed as Kd, often an IC50 or EC50 that approximates it; ≥ and ≤ were set here for values at or beyond the usual limits of such assays"}, "HLA-A*26:01": {"biological_target": "HLA-A*26:01", "assay": "IEDB peptide-MHC binding, purified MHC/direct/fluorescence; filed as Kd, often an IC50 or EC50 that approximates it; ≥ and ≤ were set here for values at or beyond the usual limits of such assays"}, "HLA-B*15:01 [3]": {"biological_target": "HLA-B*15:01", "assay": "IEDB peptide-MHC binding, purified MHC/direct/fluorescence; filed as Kd, often an IC50 or EC50 that approximates it; ≥ and ≤ were set here for values at or beyond the usual limits of such assays"}, "HLA-B*07:02": {"biological_target": "HLA-B*07:02", "assay": "IEDB peptide-MHC binding, purified MHC/direct/fluorescence; filed as Kd, often an IC50 or EC50 that approximates it; ≥ and ≤ were set here for values at or beyond the usual limits of such assays"}, "HLA-B*40:01": {"biological_target": "HLA-B*40:01", "assay": "IEDB peptide-MHC binding, purified MHC/direct/fluorescence; filed as Kd, often an IC50 or EC50 that approximates it; ≥ and ≤ were set here for values at or beyond the usual limits of such assays"}, "HLA-B*51:01": {"biological_target": "HLA-B*51:01", "assay": "IEDB peptide-MHC binding, purified MHC/competitive/fluorescence; filed as Kd, often an IC50 or EC50 that approximates it; ≥ and ≤ were set here for values at or beyond the usual limits of such assays", "settings": "source organism: Bacillus anthracis str. A0442"}, "HLA-A*24:02": {"biological_target": "HLA-A*24:02", "assay": "IEDB peptide-MHC binding, purified MHC/competitive/fluorescence; ≥ and ≤ were set here for values at or beyond the usual limits of such assays"}, "HLA-A*02:01 [4]": {"biological_target": "HLA-A*02:01", "assay": "IEDB peptide-MHC binding, purified MHC/competitive/fluorescence; ≥ and ≤ were set here for values at or beyond the usual limits of such assays"}, "HLA-B*15:17": {"biological_target": "HLA-B*15:17", "assay": "IEDB peptide-MHC binding, purified MHC/competitive/fluorescence; filed as Kd, often an IC50 or EC50 that approximates it; ≥ and ≤ were set here for values at or beyond the usual limits of such assays", "settings": "source organism: Homo sapiens"}, "HLA-B*39:01": {"biological_target": "HLA-B*39:01", "assay": "IEDB peptide-MHC binding, purified MHC/competitive/fluorescence; filed as Kd, often an IC50 or EC50 that approximates it; ≥ and ≤ were set here for values at or beyond the usual limits of such assays", "settings": "source organism: Homo sapiens"}, "HLA-A*69:01 [5]": {"biological_target": "HLA-A*69:01", "assay": "IEDB peptide-MHC binding, purified MHC/competitive/fluorescence; filed as Kd, often an IC50 or EC50 that approximates it; ≥ and ≤ were set here for values at or beyond the usual limits of such assays", "settings": "source organism: Homo sapiens"}, "HLA-A*32:01": {"biological_target": "HLA-A*32:01", "assay": "IEDB peptide-MHC binding, purified MHC/competitive/radioactivity; filed as Kd, often an IC50 or EC50 that approximates it; ≥ and ≤ were set here for values at or beyond the usual limits of such assays", "settings": "source organism: Dengue virus 4 Philippines/H241/1956"}, "HLA-B*15:01 [6]": {"biological_target": "HLA-B*15:01", "assay": "IEDB peptide-MHC binding, purified MHC/competitive/radioactivity; filed as Kd, often an IC50 or EC50 that approximates it; ≥ and ≤ were set here for values at or beyond the usual limits of such assays", "settings": "source organism: Dengue virus 4 Philippines/H241/1956"}, "HLA-B*53:01": {"biological_target": "HLA-B*53:01", "assay": "IEDB peptide-MHC binding, purified MHC/competitive/radioactivity; filed as Kd, often an IC50 or EC50 that approximates it; ≥ and ≤ were set here for values at or beyond the usual limits of such assays", "settings": "source organism: Dengue virus 3 Martinique/1243/1999"}, "[7]": {"settings": "source organism: Vibrio parahaemolyticus"}, "[8]": {"settings": "source organism: Zaire ebolavirus"}, "[9]": {"settings": "source organism: Vaccinia virus WR"}, "[10]": {"settings": "source organism: Giardia lamblia ATCC 50803"}}, "note": "pIC50, pKd: −log10 of the molar value.", "data": [{"sequence": "EIPGSPGSY", "values": [{"measurement": "pKd", "setting": "HLA-A*01:01; [7]", "value": "≤ 4.70"}, {"measurement": "pKd", "setting": "HLA-A*69:01 [1]; [7]", "value": "≤ 4.70"}, {"measurement": "pKd", "setting": "HLA-B*08:01; [7]", "value": "≤ 4.70"}, {"measurement": "pKd", "setting": "HLA-A*03:01; [7]", "value": "≤ 4.70"}, {"measurement": "pKd", "setting": "HLA-B*58:01; [7]", "value": "≤ 4.70"}, {"measurement": "pKd", "setting": "HLA-A*31:01; [7]", "value": "≤ 4.70"}, {"measurement": "pKd", "setting": "HLA-A*02:01 [2]; [7]", "value": "≤ 4.70"}, {"measurement": "pKd", "setting": "HLA-B*44:02; [7]", "value": "≤ 4.70"}, {"measurement": "pKd", "setting": "HLA-A*11:01; [7]", "value": "≤ 4.70"}, {"measurement": "pKd", "setting": "HLA-B*27:05; [7]", "value": "≤ 4.70"}, {"measurement": "pKd", "setting": "HLA-A*26:01; [7]", "value": 6.98}, {"measurement": "pKd", "setting": "HLA-B*15:01 [3]; [7]", "value": "≤ 4.70"}, {"measurement": "pKd", "setting": "HLA-B*07:02; [7]", "value": "≤ 4.70"}, {"measurement": "pKd", "setting": "HLA-B*40:01; [7]", "value": "≤ 4.70"}]}, {"sequence": "EPINMFLFI", "values": [{"measurement": "pKd", "setting": "HLA-B*51:01", "value": 6.33}]}, {"sequence": "FLLQLNETI", "values": [{"measurement": "pIC50", "setting": "HLA-A*24:02; [8]", "value": 6.06}, {"measurement": "pIC50", "setting": "HLA-A*02:01 [4]; [8]", "value": 6.48}]}, {"sequence": "GGILPWTKI", "values": [{"measurement": "pIC50", "setting": "HLA-A*24:02; [9]", "value": "≤ 4.11"}, {"measurement": "pIC50", "setting": "HLA-A*02:01 [4]; [9]", "value": "≤ 3.90"}]}, {"sequence": "GPSPSHKSV", "values": [{"measurement": "pKd", "setting": "HLA-B*15:17", "value": "≤ 4.70"}, {"measurement": "pKd", "setting": "HLA-B*39:01", "value": "≤ 4.70"}, {"measurement": "pKd", "setting": "HLA-A*69:01 [5]", "value": "≤ 4.70"}]}, {"sequence": "GTLALSLTF", "values": [{"measurement": "pKd", "setting": "HLA-A*32:01", "value": 5.86}, {"measurement": "pKd", "setting": "HLA-B*15:01 [6]", "value": 7.44}]}, {"sequence": "HPGFTILALF", "values": [{"measurement": "pKd", "setting": "HLA-B*53:01", "value": 8.98}]}, {"sequence": "IHKPRPPAT", "values": [{"measurement": "pKd", "setting": "HLA-A*01:01; [10]", "value": "≤ 4.70"}, {"measurement": "pKd", "setting": "HLA-A*69:01 [1]; [10]", "value": "≤ 4.70"}, {"measurement": "pKd", "setting": "HLA-B*08:01; [10]", "value": "≤ 4.70"}, {"measurement": "pKd", "setting": "HLA-A*03:01; [10]", "value": "≤ 4.70"}, {"measurement": "pKd", "setting": "HLA-B*58:01; [10]", "value": "≤ 4.70"}, {"measurement": "pKd", "setting": "HLA-A*31:01; [10]", "value": "≤ 4.70"}, {"measurement": "pKd", "setting": "HLA-A*02:01 [2]; [10]", "value": "≤ 4.70"}, {"measurement": "pKd", "setting": "HLA-B*44:02; [10]", "value": "≤ 4.70"}, {"measurement": "pKd", "setting": "HLA-A*11:01; [10]", "value": "≤ 4.70"}, {"measurement": "pKd", "setting": "HLA-B*27:05; [10]", "value": "≤ 4.70"}, {"measurement": "pKd", "setting": "HLA-A*26:01; [10]", "value": "≤ 4.70"}, {"measurement": "pKd", "setting": "HLA-B*15:01 [3]; [10]", "value": "≤ 4.70"}, {"measurement": "pKd", "setting": "HLA-B*07:02; [10]", "value": "≤ 4.70"}, {"measurement": "pKd", "setting": "HLA-B*40:01; [10]", "value": "≤ 4.70"}]}]}
